This is an account of results in patent US20130011401A1.

This experiment deals with human monomeric APP-tagged SIRPα V domain protein (human) (UniProt P78324). The experiment can be described thus: BiaCORE SPR; binder captured on Protein A, monovalent APP-tagged SIRPα V domain as analyte (Method 2.1). A general note: In SPR one partner is held on a chip, and binding of the other changes the refractive index at the surface.

Consider “CD47-ECD IgG1 Fc fusion protein (from UniProt Q08722 19-141)”, for which the Kd is 3000 nM.
